“Also recorded” adds a separate entry of the source.
Experiments:
[1] = test system: human ovarian cancer cell CA5171; conditions: for proportion of Annexin V/7-AAD-positive apoptosis: CA5171, 50 μg/mL YKL-40 neutralizing antibody and/or 2.5 nM paclitaxel, 37° C., 48 hours
Description: It is important to know whether the YKL-40 neutralizing antibody of the present disclosure can induce cell apoptosis after combining with human ovarian cell CA5171. In this experiment, two specific dyes “7-amino-actinomycin D” (7-AAD) and “Annexin V” are used in the flow cytometry analysis to detect if the YKL-40 neutralizing antibody induces the cell apoptosis. In addition, the combination treatment of the chemotherapy drug paclitaxel and the YKL-40 neutralizing antibody is also analyzed in this experiment.
The experiment procedure applied herein is, firstly, to treat human ovarian cancer cell CA5171 with a final concentration of 50 μg/mL YKL-40 neutralizing antibody and/or 2.5 nM paclitaxel, then culture them at 37° C. for 48 hours. The control group is treated with normal saline. After the culturing, the cells are collected and stained with 7-AAD and FITC-conjugated annexin V (FITC, Fluorescein isothiocyanate) dyes for 30 minutes. After staining, the cells are washed by using cytometer analysis solution (normal saline with a final concentration of 0.2% fetal bovine serum and 0.5% sodium azide), and then analyzed by flow cytometry.

[2] = test system: CA5171 ovarian cancer cells, which overexpress chitinase-3-like protein-1; test: Nano SPECT/CT bioimaging in tumor-carried mice; type: in vivo; conditions: tail vein injection
From the text: In order to verify these research results in a tumor-carried animal model, the CA5171 ovarian cancer cells, which overexpress chitinase-3-like protein-1, are inoculated in the left hind limb of the experiment animals. After the tumor volume grow to 200-300 mm3, use indium-111-DTPA-YKL-40 antibody complex as a radio-diagnostic drug for tumor mapping. The method of administration of diagnostic drugs is to inject the indium-111-DTPA-YKL-40 antibody complex by tail vein injection. Three tumor-carried mice are used as the animal model in both control and treatment groups, and the cross-sections of transverse, sagittal, and coronal are then taken at different time points such as 1, 4, 24 and 48 hours after administration. The tumor-carried mice of the control group are injected with indium-111-DTPA only, without YKL-40 antibody complex. […] The accumulation of the radioactive drug can at least last for 24 hours as shown in the results.

[3] = test system: human ovarian cancer cell CA5171; test: Binding ability of antibody to human ovarian cancer cell CA5171 by flow cytometry; type: cell-based
Description: When the YKL-40 neutralizing antibody of the present disclosure is isolated and purified, its binding ability to human ovarian cell CA5171 is then evaluated by flow cytometry. In this example, the antibody of the control group and YKL-40 neutralizing antibody are respectively added to the culture of the ovarian cell CA5171. After a period of culturing, the human ovarian cell CA5171 are then analyzed by flow cytometry. Please refer to FIGS. 1A and 1B. […] From the results, the binding ability of the control group antibody IgG is 28.69%, while the binding ability of the YKL-40 neutralizing antibody is as high as 71.57%.

time the radioactive drug sustains in the abdominal organs [2] [h]	Molecule	proportion of Annexin V/7-AAD-positive apoptosis [1]	cytotoxicity (in words) [1]	binding ability ([3]; human ovarian cell CA5171) [%]	binding to CA5171 cells (in words) ([3]; versus control IgG antibody)
–	CC(=O)O[C@H]1C(=O)[C@@]2(C)[C@H]([C@H](OC(=O)c3ccccc3)[C@]3(O)C[C@H](OC(=O)[C@H](O)[C@@H](NC(=O)c4ccccc4)c4ccccc4)C(C)=C1C3(C)C)[C@]1(OC(C)=O)CO[C@@H]1C[C@@H]2O [paclitaxel, reference compound]	43.90%±0.35%	–	–	–
1	O=C([O-])CN(CCN(CC(=O)[O-])CC(=O)[O-])CCN(CC(=O)[O-])CC(=O)[O-].[111In+3].[H+].[H+] [indium-111-DTPA]	–	–	–	–
–	YKL-40 neutralizing antibody: isolated neutralizing antibody specifically binding chitinase-3-like protein-1 (YKL-40); VH SEQ ID NO: 7, VL SEQ ID NO: 8 (antibody, V domains shown, recombinant YKL-40 neutralizing antibody) VH: QIQLVQSGPELKKPGETVRISCKASGYTFPNYGMNWVKQAPGKGLKWMGWINTYTGEPTYTVDFKGQFAFSLETSASTAYLQINNLKNEDTATYFCARSFYGTNGFDYWGQGTTLTVSS VL: NIVMTQSPKSMSMSVGERVTLSCKASENVGTYVSWYQQKPEQSPKLVIYGASNRYIGVPDRFTGSGSATDFTLTISSVEAEDLADYHCGQSYSYPPTFGGGTKLEIK	3.91±0.11%	not observed to be cytotoxic	71.57	stronger binding ability to CA5171 ovarian cells than the control group; also recorded: can significantly bind to human ovarian cancer cell CA5171

Reference: US12692324B2, “Anti-chitinase-3-like protein-1 (YKL-40) neutralizing antibody and uses thereof” (Institute of Nuclear Energy Research, Atomic Energy …, priority 2022, dated 2026)
